# Values of other authors in patent US10464968B2, “Method for producing a composition for treating a tooth lesion” (CREDENTIS AG, priority 2012, dated 2019).
# Like-named read-outs stand apart in the source and are kept apart here. No end group written: not given here.
sequence,measurement,setting,value
"QQRFEWEFEQQ [Example P11-4, self-assembling peptide of 11 amino acids]",phase state of aqueous solution,above pH 7.5,isotropic fluid
same,phase state of aqueous solution,below pH 3,nematic gel
same,phase state of aqueous solution,between about pH 5 and about pH 3,flocculate
same,phase state of aqueous solution,between about pH 7.5 and about pH 5,nematic fluid
